The record followed here is the Human Domainome abundance scans (Beltran et al. 2025).

± gives the uncertainty stated by the source.

B1: Telomeric repeat-binding factor 2, residues 489 to 542; numbered along this chain, Q15554 (parent)
chain: KQKWTVEESEWVKAGVQKYGEGNWAAISKNYPFVNRTAVMIKDRWRTMKRLGMN

This data set covers variants of B1. The data set can be described thus: abundance fitness (aPCA) (normalised: wild type 0, dead -1); higher = more abundant; growth selection in yeast, the domain comes from the species named. The settings on record: Homo sapiens.
Consider K18R, for which the abundance fitness stood at 0.076 ± 0.067. As to K18N, the abundance fitness was -0.435 ± 0.18.

On to K18G, for which the abundance fitness was -0.616 ± 0.14.

Regarding K18W, the abundance fitness is -0.956 ± 0.21.

For the variant K18S, the abundance fitness was -0.736 ± 0.27.

For K18T, the abundance fitness is -0.035 ± 0.12. K18E: the abundance fitness is -0.233 ± 0.11.

Turning to K18A, the abundance fitness was -0.368 ± 0.13. For the variant K18F, the abundance fitness was -0.477 ± 0.46.

Regarding K18M, the abundance fitness was -0.254 ± 0.12. In the case of K18Q, the abundance fitness is -0.07 ± 0.11.

For the variant K18P, the abundance fitness is -0.686 ± 0.11. As for K18C, the abundance fitness is -0.403 ± 0.34. K18L: the abundance fitness was -0.342 ± 0.07. For G22Q, the abundance fitness is -0.427 ± 0.09.

Turning to G22D, the abundance fitness is -0.051 ± 0.072. Take G22L: the abundance fitness is -0.761 ± 0.14. With G22A the figure was -0.286 ± 0.1; with G22E, -0.461 ± 0.17; with G22K, -0.418 ± 0.16. G22R: the abundance fitness is -0.261 ± 0.1. Consider G22P, for which the abundance fitness is -0.846 ± 0.25. Then G22F, with -0.338 ± 0.19; and G22V, with -0.489 ± 0.07. With G22I the figure was -0.595 ± 0.29; with G22T, -0.467 ± 0.35; with G22Y, -0.204 ± 0.068.

Consider G22M, for which the abundance fitness is -0.788 ± 0.15. Regarding G22W, the abundance fitness was -0.695 ± 0.17. For the variant K1E, the abundance fitness is -0.323 ± 0.2. With K1R the figure was -0.631 ± 0.16; with K1D, -0.17 ± 0.16; with K1G, -0.585 ± 0.23.

As for K1M, the abundance fitness was -0.501 ± 0.15. Take K1C: the abundance fitness was -0.578 ± 0.31.

Take E7P: the abundance fitness is -0.401 ± 0.055. As for E7A, the abundance fitness is -0.242 ± 0.063. For E7Y, the abundance fitness is -0.329 ± 0.07. With E7S the figure was -0.67 ± 0.13; with E7Q, -0.075 ± 0.12. As to E7C, the abundance fitness was -0.607 ± 0.2. Then E7I, with -0.427 ± 0.2. Regarding E7H, the abundance fitness was -0.377 ± 0.28. In the case of E7R, the abundance fitness was -0.221 ± 0.08. In the case of E7G, the abundance fitness is -0.834 ± 0.11. Take E7L: the abundance fitness was -0.258 ± 0.068.

For the variant E7N, the abundance fitness was -0.721 ± 0.33. For the variant E7F, the abundance fitness was -0.47 ± 0.046. For the variant E7M, the abundance fitness was -0.015 ± 0.11. Take E7D: the abundance fitness was -0.141 ± 0.09.

For E7T, the abundance fitness was -0.196 ± 0.091. Turning to E7V, the abundance fitness is -0.459 ± 0.083. Then E7W, with -0.443 ± 0.078; and K3N, with -0.499 ± 0.45. Turning to K3I, the abundance fitness was -0.278 ± 0.33. K3G: the abundance fitness was -0.268 ± 0.056. Then K3T, with -0.052 ± 0.048; and K3Q, with -0.245 ± 0.16. As to K3H, the abundance fitness is -0.519 ± 0.2.

Consider K3E, for which the abundance fitness is -0.175 ± 0.17. K3W: the abundance fitness was -0.33 ± 0.093. Turning to K3M, the abundance fitness was determined as 0.339 ± 0.11.

In the case of K3P, the abundance fitness was -0.01 ± 0.058. Take K3A: the abundance fitness was -0.098 ± 0.044.

Take K3C: the abundance fitness is -0.394 ± 0.14. For K3F, the abundance fitness was -0.258 ± 0.26. Then K3V, with -0.205 ± 0.094; and V12S, with -0.356 ± 0.054; and V12A, with -0.423 ± 0.075. Take V12T: the abundance fitness was -0.144 ± 0.15. V12W: the abundance fitness is -0.744 ± 0.13. In the case of V12H, the abundance fitness is -1.02 ± 0.24. With V12E, the abundance fitness is -0.262 ± 0.089.

As to V12C, the abundance fitness is -0.362 ± 0.17. As for V12G, the abundance fitness is -0.495 ± 0.063. As to V12P, the abundance fitness was -0.325 ± 0.2. For V12F, the abundance fitness is -0.75 ± 0.25. In the case of V12Q, the abundance fitness was -0.895 ± 0.17. With V12K the figure was -0.626 ± 0.25; with V12R, -0.682 ± 0.14; with V12N, -0.844 ± 0.32. In the case of V12Y, the abundance fitness was -0.855 ± 0.34. For the variant V12M, the abundance fitness was -0.132 ± 0.23. For V16T, the abundance fitness was -0.157 ± 0.17. Consider V16F, for which the abundance fitness was -0.936 ± 0.44. As for V16A, the abundance fitness was -0.505 ± 0.1. For V16G, the abundance fitness was -0.504 ± 0.062. For the variant V16K, the abundance fitness was -0.798 ± 0.43.

Consider V16H, for which the abundance fitness was -0.071 ± 0.28. Then V16R, with -0.323 ± 0.074; and V16S, with -0.563 ± 0.085. As to V16Q, the abundance fitness is -0.398 ± 0.13. Turning to V16L, the abundance fitness was -0.696 ± 0.19. Take V16I: the abundance fitness is -0.446 ± 0.2.

As for V16D, the abundance fitness was -0.459 ± 0.091. As to V16W, the abundance fitness was -0.765 ± 0.094.

On to V16E, for which the abundance fitness is -0.62 ± 0.092. With V16M the figure was -0.664 ± 0.05; with V16Y, -0.885 ± 0.25; with V6N, -0.433 ± 0.23. For V6A, the abundance fitness turned out to be 0.291 ± 0.085.

For the variant V6W, the abundance fitness was -0.063 ± 0.076. Consider V6K, for which the abundance fitness was found to be 0.171 ± 0.048. Regarding V6M, the abundance fitness was -0.768 ± 0.29. Consider V6F, for which the abundance fitness came to 0.031 ± 0.15. Turning to V6D, the abundance fitness was 0.059 ± 0.12. Regarding V6G, the abundance fitness was -0.253 ± 0.061.

As to V6H, the abundance fitness worked out at 0.298 ± 0.11.

With V6S, the abundance fitness was -0.024 ± 0.089.

For V6Y, the abundance fitness stood at 0.192 ± 0.082.

As for V6T, the abundance fitness was -0.115 ± 0.16. As for V6I, the abundance fitness amounted to 0.005 ± 0.046.

On to V6R, for which the abundance fitness came to 0.03 ± 0.054. On to V6E, for which the abundance fitness is -0.007 ± 0.094.

Consider V6C, for which the abundance fitness worked out at 0.07 ± 0.11. As for S9G, the abundance fitness is -0.354 ± 0.058. In the case of S9L, the abundance fitness is -0.31 ± 0.091. On to S9Y, for which the abundance fitness is -0.481 ± 0.15.

Take S9N: the abundance fitness was 0.107 ± 0.052. Turning to S9I, the abundance fitness is -0.021 ± 0.091.

In the case of S9A, the abundance fitness was -0.219 ± 0.078. With S9T, the abundance fitness is -0.15 ± 0.13. Take S9V: the abundance fitness was -0.483 ± 0.11. Take S9C: the abundance fitness is -0.343 ± 0.11. Then S9R, with -0.671 ± 0.096. With S9W, the abundance fitness is -0.335 ± 0.082. Turning to S9M, the abundance fitness stood at 0.39 ± 0.11. With W11S the figure was -0.321 ± 0.06; with W11T, -0.12 ± 0.11. Consider W11G, for which the abundance fitness was -0.193 ± 0.057. For W11V, the abundance fitness was -0.47 ± 0.048. W11N: the abundance fitness was -0.391 ± 0.2.

W11F: the abundance fitness is -0.394 ± 0.13. On to W11H, for which the abundance fitness is -0.294 ± 0.16. Consider W11M, for which the abundance fitness is -0.111 ± 0.11. Then W11R, with -0.553 ± 0.083; and W11D, with -0.183 ± 0.13. Consider W11Y, for which the abundance fitness was -0.191 ± 0.071. Consider W11P, for which the abundance fitness was -0.327 ± 0.19.

On to W11A, for which the abundance fitness is -0.352 ± 0.095. Then W11I, with -0.241 ± 0.18.

For N23Q, the abundance fitness turned out to be 0.057 ± 0.41.

As to N23M, the abundance fitness was -0.385 ± 0.39. Regarding N23E, the abundance fitness is -0.801 ± 0.36. For N23P, the abundance fitness was -0.773 ± 0.33.

N23C: the abundance fitness is -0.417 ± 0.36.

For N23S, the abundance fitness is -0.238 ± 0.086. Consider N23T, for which the abundance fitness was -0.478 ± 0.18. Turning to N23K, the abundance fitness worked out at 0.133 ± 0.11. Regarding N23G, the abundance fitness was -0.61 ± 0.14. On to N23L, for which the abundance fitness was -0.56 ± 0.14.

Take N23I: the abundance fitness is -0.354 ± 0.23. Regarding N23D, the abundance fitness was -0.527 ± 0.26.

On to N23A, for which the abundance fitness was -0.298 ± 0.11.

In the case of Y19S, the abundance fitness was -0.375 ± 0.071.

In the case of Y19G, the abundance fitness is -0.912 ± 0.22. As to Y19L, the abundance fitness is -0.51 ± 0.088. Turning to Y19T, the abundance fitness was -0.395 ± 0.1. Then Y19V, with -1.04 ± 0.29; and Y19E, with -0.321 ± 0.16; and Y19M, with -0.464 ± 0.26.

For Y19N, the abundance fitness is -0.242 ± 0.34. Then Y19I, with -0.051 ± 0.34. In the case of Y19W, the abundance fitness was -0.557 ± 0.085.

For Y19C, the abundance fitness was -0.528 ± 0.18. Y19K: the abundance fitness was -0.004 ± 0.13.

Turning to Y19A, the abundance fitness is -0.421 ± 0.066.
